The text below walks through data of publication PMC7225057 (Journal of molecular biology, 2020).

This test concerns the target FITC-sCT(22–32) (salmon, FITC label). Put plainly: fluorescence polarisation.

B1: RAMP1-CTR.34–141 WT (tethered RAMP1-CTR ECD fusion, AMY1 receptor ECD) (receptor)
chain: TTACQEANYGALLRELCLTQFQVDMEAVGETLWCDWGRTIRSYRELADCTWHMAEKLGCFWPNAEVDRFFLAVHGRYFRSCPISGRAVIEPKPFLYVVGRKKMMDAQYKCYDRMQQLPAYQGEGPYCNRTWDGWLCWDDTPAGVLSYQFCPDYFPDFDPSEKVTKYCDEKGVWFKHPENNRTWSNYTMCNAFTPEK
modifications: N-glycosylated (HEK293S GnTI−, enzyme treatment: none)
Broadly, the Kd is the equilibrium constant for the complex coming apart. A low value points to tighter binding. Broadly, the pKD is −log10 of the KD, conventionally taken in molar units. High values mean a low KD, low ones a high KD. Take B1: the equilibrium dissociation constant (Kd) was determined as 280 nM and the pKD came to 6.56.
